Consider four molecules from patent publication US12187772 (Regeneron, dated 2025).

Where two headings read alike, the source gives them in different places.

For experiment [1], the target named is T1, IL10 receptor (IL10 receptor subunit alpha IL10Ra and beta subunit IL10Rb) on Ramos/STAT3-Luc and … (UniProt Q13651 22-578; Q08334 20-325, limits assumed).
T1 sequence (looked up) 1: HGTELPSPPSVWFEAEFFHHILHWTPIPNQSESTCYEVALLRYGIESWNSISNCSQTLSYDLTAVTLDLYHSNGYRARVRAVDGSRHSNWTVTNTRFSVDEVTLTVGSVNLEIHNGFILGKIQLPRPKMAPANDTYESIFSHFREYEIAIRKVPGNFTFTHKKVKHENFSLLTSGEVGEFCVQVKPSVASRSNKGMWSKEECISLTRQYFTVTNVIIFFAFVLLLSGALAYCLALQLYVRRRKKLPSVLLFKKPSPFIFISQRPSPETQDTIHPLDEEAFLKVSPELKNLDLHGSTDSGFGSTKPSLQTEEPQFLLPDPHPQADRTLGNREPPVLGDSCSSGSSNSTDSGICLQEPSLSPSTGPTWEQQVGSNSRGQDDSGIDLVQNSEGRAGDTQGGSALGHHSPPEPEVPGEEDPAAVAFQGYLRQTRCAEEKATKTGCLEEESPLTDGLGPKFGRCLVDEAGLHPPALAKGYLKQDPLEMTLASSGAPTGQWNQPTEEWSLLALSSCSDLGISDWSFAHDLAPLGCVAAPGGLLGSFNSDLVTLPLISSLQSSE
T1 sequence (looked up) 2: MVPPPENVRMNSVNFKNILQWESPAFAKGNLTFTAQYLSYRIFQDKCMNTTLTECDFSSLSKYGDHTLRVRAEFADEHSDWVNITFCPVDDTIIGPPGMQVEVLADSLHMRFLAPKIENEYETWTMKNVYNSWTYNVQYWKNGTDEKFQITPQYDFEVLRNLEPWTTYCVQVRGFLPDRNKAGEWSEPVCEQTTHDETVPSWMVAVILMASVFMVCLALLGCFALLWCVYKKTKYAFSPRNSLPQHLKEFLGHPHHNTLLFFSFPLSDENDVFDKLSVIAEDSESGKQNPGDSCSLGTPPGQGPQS
In words: cell-based or functional assay.

Experiment [2] addresses T1, IL10 receptor (IL10 receptor subunit …). Kind of experiment: cell-based or functional assay. The source holds these as a separate data set.

B1: IL10M3 (hIL10-1XG4S-Fc; Fc is murine IgG1) (Fc fusion)
chain: SPGQGTQSENSCTHFPGNLPNMLRDLRDAFSRVKTFFQMKDQLDNLLLKESLLEDFKGYLGCQALSEMIQFYLEEVMPQAENQDPDIKAHVNSLGENLKTLRLRLRRCHRFLPCENKSKAVEQVKNAFNKLQEKGIYKAMSEFDIFINYIEAYMTMKIRNGGGGSVPRDCGCKPCICTVPEVSSVFIFPPKPKDVLTITLTPKVTCVVVDISKDDPEVQFSWFVDDVEVHTAQTQPREEQFNSTFRSVSELPIMHQDWLNGKEFKCRVNSAAFPAPIEKTISKTKGRPKAPQVYTIPPPKEQMAKDKVSLTCMITDFFPEDITVEWQWNGQPAENYKNTQPIMDTDGSYFVYSKLNVQKSNWEAGNTFTCSVLHEGLHNHHTEKSLSHSPGK
B1: in experiment [1], the “EC50 [M] of luciferase activity, Ramos/STAT3-Luc reporter cells” value was 2.19e-10 M; the “EC50 [M] of luciferase activity, TF-1/STAT3-Luc reporter cells” value turned out to be 4.51e-10 M; the “Fold Induction of luciferase activity, Ramos/Stat3-Luc reporter cells” value (shortened to “Fold Induction … Ramos/Stat3-Luc reporter cells”) was 3.2 fold; the “Fold Induction of luciferase activity, TF-1/Stat3-Luc reporter cells” value (shortened to “Fold Induction … TF-1/Stat3-Luc reporter cells”) is 3.4 fold.

B2: Recombinant human IL10 (obtained from Peprotech, Princeton NJ, Product #200-10) (ligand)
chain: SPGQGTQSENSCTHFPGNLPNMLRDLRDAFSRVKTFFQMKDQLDNLLLKESLLEDFKGYLGCQALSEMIQFYLEEVMPQAENQDPDIKAHVNSLGENLKTLRLRLRRCHRFLPCENKSKAVEQVKNAFNKLQEKGIYKAMSEFDIFINYIEAYMTMKIRN
For B2, in experiment [1], the “EC50 [M] of luciferase activity, Ramos/STAT3-Luc reporter cells” value amounted to 5.07e-11 M; the “EC50 [M] of luciferase activity, TF-1/STAT3-Luc reporter cells” value worked out at 7.05e-11 M; the “Fold Induction … Ramos/Stat3-Luc reporter cells” value is 4.5 fold; the “Fold Induction … TF-1/Stat3-Luc reporter cells” value is 5.9 fold. Besides, in experiment [2], the “EC50 of luciferase activity, Ramos/Stat3-Luc reporter cells” value was 0.0482 nM; the “EC50 of luciferase activity, TF-1/Stat3-Luc reporter cells” value is 0.063 nM; the “Fold Induction … Ramos/Stat3-Luc reporter cells” value was 5.16 fold; the “Fold Induction … TF-1/Stat3-Luc reporter cells” value was 4.02 fold.

B3: hIgG1 (anti-FelD1 human IgG1 Fc isotype control) (antibody, V domains shown)
VH: QVQLQESGPGLVKPSETLSLTCTVSGGSISSYYWSWIRQPPGKGLEWIGYIYYSGRTNYNPSLKSRVTISVDTSKNQFSLKLSSVTAADTAIYYCARHRVTRTADSFDYWGQGTLVTVSS
VL: DIQMTQSPSSLSASVGDRVTITCQASQDINNYLNWYQQKTGKAPKFLIYDASNLETGVSSRFSGSGSGTDFTFTISSLQPEDVGTYYCHQYGDLPYTFGQGTKLEIKR
As for B3, in experiment [2], the “Fold Induction … Ramos/Stat3-Luc reporter cells” value was 1.1 fold and the “Fold Induction … TF-1/Stat3-Luc reporter cells” value was determined as 1 fold.

B4: mIgG1 (murine IgG1 Fc isotype control; control antibody with murine IgG1 sequence) (antibody, V domains shown)
VH: QVQLQESGPGLVAPSQSLSITCTVSGFSLTTFGVHWVRQSPGKGLEWLGVIWADETTNYNSALMSRLSISKDNSKSQVFLKMNGLRTDDTAIYSCARSKVSYYFDYWGRGTTLTVSS
VL: NIMMTQSPSSLPVSPGEKVTMNCKSSRSVLYSLNQKNYLAWYQQKPGQSPKLLIYWASTRESGVPDRFTGSGSGTDFSLTISSVQAEDLAVYYCHQYLSSWTFGGGTKLEIKR
Take B4: in experiment [1], the “Fold Induction … Ramos/Stat3-Luc reporter cells” value was 1.1 fold and the “Fold Induction … TF-1/Stat3-Luc reporter cells” value worked out at 1.1 fold.
